The values below come from a protein production outcome set (Wang et al. 2014).
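Further: failed if final PepcDB status was selected cloned or expressed and not failed if soluble or beyond.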

The nature of this data set: label from the status in PepcDB records.
For “MEEWPALQWSQGTPASGPALQALEEYAFVPRDDESRQGIRTDALLVIRDGRLLYERYAGATGPQTPHLAWSASKSLLAVLLGVAFGEGRFQLQDPAAKFYPPLEAHPDITLADLLHWASGLDWQEDYEYAPLNSSVVAMLYTRGHRDMAAFTVQQAASGPPGQVFRYSSGDSNLLAASLRGMVGEGQYADYPWRALFEPLGITQAVWERDAAGTFVASSYLYLTARDLARIGLLMQRDGRWRDRQLLPKAWVEFCRTPFRGYRANQDVAVAGGHWWLNREVDGAPRPWPDAPADTYAALGHWGQALYVLPAQRLVIVRYGDDRDGSYQHNELLKRVLAAFATPEQPLEHHHHHH”, the protein production result was “failed”.

As to “MTAREIAEHPFGTPTFTGRSWPLADVRLLAPILASKVVCVGKNYADHIAEMGGRPPADPVIFLKPNTAIIGPNTPIRLPANASPVHFEGELAIVIGRACKDVPAAQAVDNILGYTIGNDVSARDQQQSDGQWTRAKGHDTFCPVGPWIVTDLAPFDPADLELRTVVNGDVKQHARTSLMIHDIGAIVEWISAIMTLLPGDLILTGTPAGVGPIEDGDTVSITIEGIGTLTNPVVRKGKP”, the protein production result is given as “failed”.

On to “MTTTFEFLQPRIHGFATCCSSNSLLYSKASRFFNDRCRVYRQNPNRFVSNSITLPLQKKQVTVLRNHERFNLWDGFSRKKSRLVVNCQEDDQNESSSEEEESSQSTPAKSERKREKKEDKVWWSKGKKWQWQPIIQAQGIGVLLLQLSVVMFVMRLLRPGIPLPGSEPRIQTTFVSVPYSEFLSKVNSNQVQKVEVDGVQVLFKLRDDGKWQESETSRLSQSSESLLRTVAPTKRVVYSTTRPGDIKTPYEKMLGNNVEFGSPEKRSGGFFNSALIALFYIAVLAGLIRFPVSFSTSSTGQLRTRKAGGPDGGKVSGGGETITFADVAGVDEAKEELEEIVEFLRNPEKYVRLGARPPRGVLLVGLPGTGKTLLAKAVAGEAEVPFISCSASEFVELYVGMGASRVRDLFARAKKEAPSIIFIDEIDAVAKSRDGKFRMGSNDEREQTLNQLLTEMDGFDSNSAVIVLGATNRADVLDPALRRPGRFDRVVTVETPDKIGRESILRVHVSKKELPLGDDVNLGSIASMTTGFTGADLANLVNEAALLAGRKNKTNVEKIDFIQAVERSIAGIEKKSARLKGNEKAVVARHEAGHAVVGTAVANLLTGQPRVEKLSILPRTGGALGFTYIPPTSEDRYLLFIDELLGRLVTLLGGRAAEEVVYSGRISTGAFDDIRRATDMAYKAVAEYGLNQKIGPVSVATLSGGGIDDSGGSPWGRDQGKLVDLVQKEVTILLQSALDVALSVVRANPDVLEGLGAQLEEKEKVEGEELQKWLSMVVAPEELAVFVEGKQELLLPAQASSS”, for which the protein production result is “failed”.

For “HTYKSLFVAPCDAGVKSIKDLKGKSVAFVDPASTSGGLMPTYMVKKETGMMPQQFFGKFTYSGSHDAAELAVKNKTVDAAADNDITYEKMLAKGLITKETNCVVKESDPLPGSPLVYRKDLPAATKKKIRDAILNAH”, the protein production result is recorded as “failed”.

On to “MTLPPYHTPLPAETLRALSIPAPWTFGLADRVRFGELDAIGHVNHTAYLRWYESFRLPFLKARHVTDYGPTSPRLVLKQVHCTYLAEMGMGEDYVITGRVSNFRTTSFTMEFACWRLGDAVECTSEGSAVVVLLNRDGSGRYPIPEAGRASFVTEDGVLAAG”, for which the protein production result is “not failed”.

For the sequence “MELTILILLLPFLSFLILGIGGKWMSHRTAGAIGTLILGAVVVLSYVTAFQYFSAPRLEDGTFATLIPYNFTWLPFTETLRFDLGILLDPISVMMLIVISTVSLMVHIYSFGYMKGETGFQRYYAFLSLFTMSMLGLVVATNIFQMYLFWELVGVSSYLLIGFYYTKPAAIAASKKAFIVTRFADLGFLIGILIYGYYGGTFGFTPDTVSLISGGASMLPLALGLMFIGGAGKSAMFPLHIWLPDAMEGPTPVSALIHAATMVVAGVYLVARMFPLFIAYAPDTLHMIAWVGAFTAFYAASVACVQSDIKRVLAFSTISQIGFMMVALGVCTSMDPHHGGLGYMASMFHLFTHAMFKALLFLGAGSIIHAVHSNEMSAMGGLRKYMPITHWTFLIACLAIAGIPPFSGFFSKDEILAACFQYSPAMGWVMTVIAAMTAFYMFRLYYGIFWGAEPPRASSHSDHSTPHGNLEAAPCRPHESPLAMTFPLIFLAVVTCLAGFIPFGHFISSNGESYSIHLDLSVAVTSVVIAIISIGIATWMYKNAKQPVANALAKRFNGLWTAAYHRFYIDDIYQFITHKIIFRCISTPIAWFDRHVVDGFFNFLAWATNTTSDEIRGLQSGQVQQYAYVFLCGALALILLLVL”, the protein production result is given as “failed”.

On to “MTQDPIANLKLARKGPIVSIIVYLSLSVAKLLAGYLLNASSLIADGFNNLSDIVGNVALLIGLHLASQPADANHKFGHWKIEDLSSLVTSFIMFLVGFQVLIHTIKSIFSGQQVDIDPLGAIVGIVSAFVMLGVYVFNKRLSKRVKSSALVAASKDNLADAVTSIGTSIAIIAASLHLPVIDHIAAMIITFFILKTAFDIFMESSFSLSDGFDSRHLKKYEKAILEIPKIVAVKSQRARTYGSNVYLDIVLEMNPDLSVYESHSITEKVEQLLSDQFSIYDIDIHVEPAMIPEEEIFDNVAKKLYRYEKLILSKVPDYDHYIAKSFQLIDANGQTVNYEQFLNQEIYYPSNFNHFQIESISQKTMLVTYQLNGNQRTSIWRRHESWSLLFHQITPIAKKQLHHTHYRIVKM”, for which the protein production entry is recorded as “failed”.

As for “MEQVIAQVIKRQQTEERPPDVLSQQTTKYEKRNSASLRKRKNSSKLYLKTDQNWMALREKLASNSIHDKGKYRQKRESNVTCFKSGVESGIQNSSVRSRETQVTFCDGTVPSQGLELANSKSTAEISSRNEIPRLTKVVALDCEFVGVGKLGKEHSLARVSIVNFKGEVLYDKYVLNDKEPVVDYRTSVSGIRPEHLRSSDAVSFEQAQRDVYSIIRNRILVGHAIHHDMHALLLSHPRKLIRDTSKWRGLRSHHLSRKTPSLRKLAQEILGIRIQDGEHDSVEDARATLMIYKRFAKEWEMELQTKKVKLARKKHR”, the protein production result is recorded as “failed”.

For the sequence “MTMTHLNRLILISLLFVSLLLKSSTASSTVVDEGNRTSRNFRYRTHRFVPRFNHHPYHVTPHRSCDSFIRPYARSMCIELQRIHRSSRKQPLLSPPPPEIDPRYGVDKRLVPSGPNPLHN”, the protein production result is recorded as “failed”.

Regarding “MPDNEVDLLFAQLSPEDLIEWSDYLPESFTDRALAQMGERQRQRFELYDQYSENEIGRYTDHQMLVLSDKATVAQAQRFFRRIELDCNDNLFIVDEADKYLGTVRRYDIFKHEPHEPLISLLSEDSRALTANTTLLDAAEAIEHSREIELPVIDDAGELIGRVTLRAATALVREHYEAQLMATAGMDESDDLFAPILKGAQRRAVWLGINLLTAFLASATIGLFENVLSQVVALAVLMPIVASMGGIAGSQSLTLMIRGMAMGQISAGNLFSLMKNELGIGLVNGTLWAIVIGLVAGWWFADSIIGIVIGCAILINMAVAALAGVFVPMIL”, the protein production result is “failed”.

Consider “MDELFTESAKAVLAIAQEEAKYFRHQSVGSEHLLLALVLEPNGIAGKTLRQLNTDTEDIREEIEHLSGYGTMQSPMGNNNLYLPYSPRAKQIFAYAGDEAKRLGAQKIGTEHLLLGLLRDEEILASRILVNLGLSLSKMRQLLLKKMG”, for which the protein production result was “not failed”.

Turning to “MVAKQLSIFLENKSGRLTEVTEVLAKENINLSALCIAENADFGILRGIVSDPDKAYKALKDNHFAVNITDVVGISCPNVPGALAKVLGFLSAEGVFIEYMYSFANNNVANVVIRPSNMDKCIEVLKEKKVDLLAASDLYKL”, the protein production entry was “not failed”.

Turning to “MNFNQFENQNFFNGNPSDTFKDLGKQVFNYFSTPSFVTNIYETDELYYLEAELAGVNKEDISIDFNNNTLTIQATRSAKYKSEQLILDERNFESLMRQFDFEAVDKQHITASFENGLLTITLPKIKPSNETTSSTSIPIS”, the protein production result is “failed”.

For “MRAGDGKIRVPADLDAVTATGEEDHSEIDGAAVDRIWRAARHWYRAGMHPAIQLCIRHHGRVVLNRAIGHGWGNAPTDEADAEKIPVTTDTPFCVYSAAKAITATVVHMLVERGHFALDDRVCEYLPSYTSHGKHRTTIRHVLTHSAGVPFPTGPRPDVRRADDHEYAVERLGELRPLYRPGLVHIYHALTWGPLMREIVYAATGKEIREILATEILDPLGFRWTNFGVAERDVPLVAPSHATGRQLPPVIAAVFRKAIGGTVHEIIPYTNTPFFLSTILPSSNTVSTANELSRFMEILRRGGELDGVRVLSPETLRGAVTECRRLRPDFATGLMPLRWGTGFMLGSAKYGPFGRNAPAAFGHLGLVNIAVWADPERALSGGLISSGKPGRDPEAGRYGALLNAITAEIPRASSG”, the protein production entry is reported as “failed”.

Regarding “MMAGFAQTTITKINQFYERWMPRLPAEMTARNVLVFCVVCLLCIGSVMVASASMPYAEYMHENPFHYVVRHAISIATAAIVAYLVYKVPLNVWFKNTFSFWLITILLLLAVLVIGTEVNGSRRWIRLAGFTLQPTEVAKVMMAIFTADYVVRRAKEVRTHWKGLVRLSGVMAITVGLIIAEPDLGATVVIVLMMVGIFFLAGAPPTQFAIMLGAVVMGIGFLILFEPYRLARAMSFTNPWADPLGTGYQLSNALMAFGRGEWFGTGLGHSVQKLSYLPEAHTDFMLAVLGEEFGFVGISIVIGLSFIMLACCIKIGHRALKHNFLRAGYLAYGISIIFLLQIIVNAGMNMGLMPTKGLTLPFISYGGTSLMMCAAMISLILRIDASTQEINPDREESNF”, the protein production entry is listed as “failed”.

Consider “MTTPVDAPKWPRQIPYIIASEACERFSFYGMRNILTPFLMTALLLSIPEELRGAVAKDVFHSFVIGVYFFPLLGGWIADRFFGKYNTILWLSLIYCVGHAFLAIFEHSVQGFYTGLFLIALGSGGIKPLVSSFMGDQFDQSNKSLAQKAFDMFYFTINFGSFFASLSMPLLLKNFGAAVAFGIPGVLMFVATVFFWLGRKRYIHMPPEPKDPHGFLPVIRSALLTKVEGKGNIGLVLALIGGVSAAYALVNIPTLGIVAGLCCAMVLVMGFVGAGASLQLERARKSHPDAAVDGVRSVLRILVLFALVTPFWSLFDQKASTWILQANDMVKPQWFEPAMMQALNPLLVMLLIPFNNFVLYPAIERMGVKLTALRKMGAGIAITGLSWIVVGTIQLMMDGGSALSIFWQILPYALLTFGEVLVSATGLEFAYSQAPKAMKGTIMSFWTLSVTVGNLWVLLANVSVKSPTVTEQIVQTGMSVTAFQMFFFAGFAILAAIVFALYARSYQMQDHYRQAT”, for which the protein production result is listed as “failed”.

Consider “MSQSTHQSTDHKRQSQDKNQTHAYAKVWLYFMYYWMIFGIGCYFGQYLPMSWRKPLSLGLLILILATLFIKRARKYGLVISHIYAIIVGLLSYALFTTYLQNLGAEVFYKNIILAIGAFIAFGIIGYFLIKDASSMGKYLFVTLIALIIAGIIGIFINNPIFHTVITIVSLLLFLLYTLYDFNRMKRGQFSPREMGFNLFINLLNIIEDILSLANRFKN”, for which the protein production result is listed as “failed”.

For “MSAAIAALAASYGSGSGSESDSDSEGSRCPLPAADSLMHLTKSPSAKPSLTVAVDSAPEVAVKEDLETGVHLDPAVKEVQYNPTYETMFAPELLPSHXSXPFEQWHHPRELPTGTRVPAPVTXALFPQERGSVICTCLLSGYALDPSLDNHQVSAKYIGSVEDAEKNQGLTVFETGQKKTEKRKKFKENDASNIDGFLGPWAKYVDEKDVAKPSEEEQKELDEITAKRQKKGKQEEEKPGEEKTILHVKEMYDYQGRSYLHIPQDVGVNLRSSVPPEKCYLPKKQIHVWSGHTKGVSAVRLFPLSGHLLLSCSMDCKIKLWEVYGDRRCLRTFIGHSKAVRDICFNTAGTQFLSAAYDRYLKLWDTETGQCISRFTNRKVPYCVKFNPDEDKQNLFVAGMSDKKIVQWDIRSGEIVQEYDRHLGAVNTIVFVDENRRFVSTSDDKSLRVWEWDIPVDFKYIAEPSMHSMPAVTLSPNGKWLACQSMDNQILIFGAQNRFRLNKKKIFKGHMVAGYACQVDFSPDMSYVISGDGNGKLNIWDWKTTKLYSRFKAHDKVCIGAVWHPHETSKVITCGWDGLIKLWD”, the protein production result was “failed”.
